Reference: article PMC3130014, “The Cryo-EM Structure of a Complete 30S Translation Initiation Complex from Escherichia coli” (PLoS Biology, 2011)

Target: T1, initiation factor 2 (IF2α) from E. coli (E. coli, UniProt P0A705 1-890)
T1 construct: Translation initiation factor IF2, alpha form (IF2α), E. coli; CTD: G2 391-559, G3 560-672, C1 673-779, C2 780-890); source: prepared as described [14]
Experiment: cryo-EM structure; 30S IC reconstituted from 30S subunits (0.1 µM), IF1 (0.3 µM), IF2α (0.2 µM), IF3 (0.3 µM), 002 mRNA (0.6 µM), fMet-tRNA^fMet (0.6 µM), GDPNP (0.5 mM); 37°C 15 min, buffer A (50 mM Tris-HCl pH 7.5, 70 mM NH4Cl, 30 mM KCl, 7 mM MgCl2); class 2 map at 18.3/15 Å; rigid-body and flexible fitting of a homology model of IF2
Settings: both partners purified

T1 sequence (P0A705 whole entry): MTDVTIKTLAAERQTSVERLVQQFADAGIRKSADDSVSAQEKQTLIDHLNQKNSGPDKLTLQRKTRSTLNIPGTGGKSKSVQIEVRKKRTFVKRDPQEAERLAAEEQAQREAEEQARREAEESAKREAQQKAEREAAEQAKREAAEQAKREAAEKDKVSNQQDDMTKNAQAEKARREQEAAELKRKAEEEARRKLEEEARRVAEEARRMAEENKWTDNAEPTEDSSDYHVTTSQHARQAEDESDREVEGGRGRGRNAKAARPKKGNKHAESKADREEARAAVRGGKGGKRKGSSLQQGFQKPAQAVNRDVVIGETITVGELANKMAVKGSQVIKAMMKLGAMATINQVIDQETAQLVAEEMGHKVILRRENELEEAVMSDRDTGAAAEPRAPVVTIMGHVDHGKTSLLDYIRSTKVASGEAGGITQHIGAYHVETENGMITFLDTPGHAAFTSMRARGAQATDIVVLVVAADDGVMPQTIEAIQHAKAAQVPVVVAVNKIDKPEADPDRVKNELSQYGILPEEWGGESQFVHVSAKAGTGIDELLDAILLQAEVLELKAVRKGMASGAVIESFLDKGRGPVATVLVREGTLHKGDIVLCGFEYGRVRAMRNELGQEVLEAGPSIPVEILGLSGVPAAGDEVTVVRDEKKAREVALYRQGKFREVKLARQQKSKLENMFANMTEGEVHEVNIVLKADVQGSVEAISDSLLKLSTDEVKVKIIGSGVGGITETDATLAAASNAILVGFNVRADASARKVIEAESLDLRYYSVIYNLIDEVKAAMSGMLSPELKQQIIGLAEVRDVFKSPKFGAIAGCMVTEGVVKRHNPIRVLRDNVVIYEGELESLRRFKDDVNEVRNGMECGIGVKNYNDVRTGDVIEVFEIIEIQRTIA

binding result: binds
B1: initiation factor 1 (IF1) from E. coli (natural protein, UniProt P69222 1-72, looked up)
chain: MAKEDNIEMQGTVLETLPNTMFRVELENGHVVTAHISGKMRKNYIRILTGDKVTVELTPYDLSKGRIVFRSR
notes: Translation initiation factor IF1, E. coli; source: prepared as described [14]
